In data set [1] the test system is T1, MMP-cleavable crosslinker KLGPAK (Lys-Leu-Gly-Pro-Ala-Lys).
T1 sequence: KLGPAK

For data set [2], the system named is T2, plasmin-cleavable crosslinker KNRVK (bisacryloylated Lys-Asn-Arg-Val-Lys).
T2 sequence: KNRVK

Sequence of plasmin (P00747 20-580): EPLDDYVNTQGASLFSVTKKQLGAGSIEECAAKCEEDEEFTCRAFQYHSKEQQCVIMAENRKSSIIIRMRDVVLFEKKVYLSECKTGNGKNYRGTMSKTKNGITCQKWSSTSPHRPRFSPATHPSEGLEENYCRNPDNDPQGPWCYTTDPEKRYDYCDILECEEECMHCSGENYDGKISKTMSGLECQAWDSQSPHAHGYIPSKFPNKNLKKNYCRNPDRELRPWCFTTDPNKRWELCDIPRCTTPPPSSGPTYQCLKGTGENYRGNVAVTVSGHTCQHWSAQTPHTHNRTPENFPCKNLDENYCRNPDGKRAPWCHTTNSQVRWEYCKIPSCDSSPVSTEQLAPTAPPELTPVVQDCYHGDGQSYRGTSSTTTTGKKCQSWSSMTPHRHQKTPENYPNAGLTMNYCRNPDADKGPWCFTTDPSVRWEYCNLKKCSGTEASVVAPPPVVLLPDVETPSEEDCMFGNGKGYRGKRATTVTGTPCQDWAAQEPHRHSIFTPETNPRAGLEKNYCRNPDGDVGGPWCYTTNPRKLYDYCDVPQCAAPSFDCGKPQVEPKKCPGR
Sequence of plasmin (P00747 581-810): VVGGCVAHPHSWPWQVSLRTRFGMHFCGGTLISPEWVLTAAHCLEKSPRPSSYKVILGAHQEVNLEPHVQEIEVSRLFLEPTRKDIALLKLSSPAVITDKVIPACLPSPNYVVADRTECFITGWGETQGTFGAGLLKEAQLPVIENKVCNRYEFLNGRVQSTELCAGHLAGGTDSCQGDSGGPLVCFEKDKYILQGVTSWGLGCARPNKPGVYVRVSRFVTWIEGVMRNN

Consider “collagenase (a bacterial equivalent of MMP)”, for which the “degradation of the polymer shells of nBSALGPA (DLS)” value in data set [1] is on record as “Exposing nBSALGPA to collagenase results in specific degradation of the polymer shells”. For the same substance, the “release of BSA from nBSANRV (SDS-PAGE, 30 min)” value in data set [2] is recorded as “nBSANRV without exposure to plasmin (line 2) or after exposure to collagenase (line 4) does not show any well-defined band”.

As to plasmin, in data set [1], the “release of BSA from nBSALGPA (SDS-PAGE, 30 min)” value was “plasmin is incapable of triggering release of BSA from MMP-specific nBSALGPA”. Besides, in data set [2], the “VEGF released from nVEGF formed with 100% degradable crosslinker (ELISA, with plasmin)” value is “released 95% of the VEGF used to form the nanocapsules”; the “release of BSA from nBSANRV (SDS-PAGE, 30 min)” value is “does exhibit a well-defined band (line 3) similar to that of native BSA upon exposure to plasmin”; the “release percentage of VEGF from de-nVEGFplasmin (100%-peptide crosslinker) (ELISA)” value is on record as “plasmin-incubated nVEGF showed about 60% release percentage”.

With trypsin, the “release of VEGF from de-nVEGFplasmin (100%-peptide crosslinker) (ELISA)” value in data set [2] was “only extended periods of incubation with trypsin and collagenase IV had releases of VEGF”.

(Values after patent US9993440.)
